Experimental data from paper PMC2926592.

Experiments:
[1] = target: human XRCC1 P161L population variant, recombinant, S-peptide- and His-tagged (human) (UniProt P18887); test: pull-down
[2] = target: human XRCC1 R109A variant, recombinant, S-peptide- and His-tagged (human) (UniProt P18887); test: pull-down

DNA polymerase β (POLβ), recombinant (from UniProt P06746 1-335) (enzyme)
percent decrease in POLβ retention against WT XRCC1 [1]: 20% | fold decrease in POLβ retention against WT XRCC1 [2]: 5 fold | percent decrease in POLβ retention against WT XRCC1 [2]: 83%
